Assay results taken from patent publication US12064464B2, “Plantaricin NC8 alpha beta markedly enhances the effects of antibiotics” (priority 2018, dated 2024).
Entries after “also recorded” stand apart in the source; their conditions may differ. Where two headings read alike, the source gives them in different places.

Legend:
[1] = tested on: S. epidermidis; experiment: Broth microdilution MIC/MBC, strain not named; format: cell-based, Staphylococcus epidermidis
Description: (§1) Staphylococcus aureus CCUG 35601 (MRSA, Culture Collection, University of Gothenburg) and Staphylococcus aureus ATCC 29213 (MSSA, ATCC, Manassas, VA). Staphylococcus epidermidis ATCC 12228 (ATCC, Manassas, VA), RP62A, N15 and 10 clinical isolates of Staphylococcus epidermidis that have previously been characterized. Isolated Escherichia coli, Enterococcus faecium (including VRE), Pseudomonas aeruginosa, Klebsiella pneumoniae, Enterobacter spp and Acinetobacter baumannii were obtained from Orebro University hospital. Isolated Streptococcus mutans, Streptococcus constellatus and Streptococcus anginosus were obtained from Malmo University. The bacteria were grown on Luria-Bertani (LB) agar plates, supplemented with 5% defibrinated horse blood, and incubated at 37° C. overnight. Single colonies were inoculated into 5 ml of LB broth and incubated on a shaker (300 rpm) at 37° C. overnight. The bacterial concentration was determined by viable count and adjusted to correlate with approximately 10^9 CFU/ml.
(§2) The broth microdilution method was used to determine minimal inhibitory concentration (MIC) and minimal bactericidal concentration (MBC). Two-fold serial dilutions of the peptides were used and the final concentrations ranged from 0.097-50 μM. […] The effect of bacteriocin-antibiotic combinations was accomplished by using the same concentration series of antibiotics with a constant concentration of PLNC8 αβ (3.1 μM) in all the wells. […] All experiments were repeated at least three times.

[2] = tested on: Streptococcus spp (S. mutans, S. constellatus, S. anginosus); experiment: Sytox Green uptake (membrane permeabilization); format: cell-based; details: 5 μM, 2 min
Method: The fluorescent dye Sytox® Green, which can only cross damaged membranes and fluoresce upon binding to nucleic acids, was used to study the antimicrobial activity of PLNC8 αβ on S. epidermidis, S. aureus (MSSA, MRSA) and Streptococcus spp. The bacteria were washed and resuspended in Krebs-Ringer Glucose buffer (KRG) (120 mM NaCl, 4.9 mM KCl, 1.2 mM MgSO4, 1.7 mM KH2PO4, 8.3 mM Na2HPO4, and 10 mM glucose, pH 7.3) and incubated in the presence or absence of different combinations of PLNC8 αβ in 96-well microtiter plates for 2 min. Images were captured with Olympus BX41 at 40× magnification.

[3] = tested on: S. aureus ATCC 29213 (MSSA); experiment: Broth microdilution MIC/MBC; format: cell-based, Staphylococcus aureus; details: Table 1, peptide alone, 20 h; no unit in table, μM
Description: as §1, §2

[4] = tested on: S. aureus CCUG 35601 (MRSA); experiment: Broth microdilution MIC/MBC; format: cell-based, Staphylococcus aureus
Description: as §1, §2

[5] = tested on: HaCaT cells infected with MSSA; experiment: Keratinocytes infected with MSSA: LDH, ELISA, RT-qPCR, scratch assay
Method: Human keratinocytes (HaCaT) were cultured in Dulbecco's modified Eagle medium (DMEM, Fisher Scientific, New York, USA) supplemented with 10% FBS (FBS, Invitrogen Ltd, Paisley, UK) incubated in a stable environment at 95% air, 5% CO2 and 37° C. The cells were used at passages 1-20.
HaCaT cells were cultured overnight in a 24-well plate at a seed-count of 2×10^5 cells per well. […] Co-stimulation was performed by infection of human keratinocytes, in the presence or absence of PLNC8 αβ, for 24 h, or infection of the cells for 1 h followed by addition of different concentrations of PLNC8 αβ for 6 h. Furthermore, infection of keratinocytes, with or without PLNC8 αβ, were monitored in real-time for 72 hours using IncuCyte Live-cell Analysis System. Bacterial load was quantified by measuring the fluorescence of green fluorescent protein (GFP) and cell viability was determined by measuring the fluorescent dye Draq7 that stains nuclei of dead cells.
ELISA was performed on supernatants retrieved from human keratinocytes that were exposed to MSSA and PLNC8 αβ. The levels of CXCL8 (Human IL-8 ELISA MAX Deluxe, Nordic Biosite, Sweden) and IL-6 (Human IL-6 ELISA MAX Deluxe, Nordic Biosite, Sweden) were quantified according to the manufacturer's instructions.

[6] = tested on: Pseudomonas aeruginosa; experiment: Broth microdilution MIC/MBC; format: cell-based; details: for MBC / MIC: P. aeruginosa, peptide alone
Description: as §1, §2

[7] = tested on: Enterococcus faecium; experiment: Broth microdilution MIC/MBC; format: cell-based; details: for MBC / MIC: peptide alone
Description: as §1, §2

[8] = Fluorescence leakage assay (CF release from liposomes); details: after 2 min; both the L-form and D-form
Method: Liposomes were prepared by dry film formation, hydration and finally extrusion through a polycarbonate membrane to form monodisperse large unilamellar vesicles. […] A dry lipid film was formed by evaporation of the chloroform by nitrogen flow and overnight lyophilization. The film was hydrated with either 10 mM phosphate buffer (PB) pH 7 or 10 mM phosphate buffer saline (PBS) pH 7, and the solution was vortexed for 1 min and put on a shaker for 1 h before extruded 21 times through a 100 nm pore-sized polycarbonate membrane. For fluorescence leakage assay the lipid film was hydrated with buffer (PBS) containing self-quenching concentration (50 mM) of 5(6)-carboxyfluorescein (CF) (Sigma Aldrich) and liposomes were prepared as described above. Removal of unencapsulated CF was done by gel filtration using a PD-25 column (GE Healthcare, Uppsala, Sweden) and liposomes with encapsulated CF were eluted with PBS. Leakage of the liposome encapsulated fluorophore CF due to additions of the bacteriocins was recorded using a fluorescence plate reader (Infinite 200, Tecan, Austria) where λex=485 nm and λem=520 nm. CF was encapsulated at self-quenching concentration, and CF release results in an increased fluorescence signal. […] In order to estimate the maximum release from each sample a final addition of 0.5% Triton X-100 was made at the end of all measurements and the total amount of CF (100% release) was estimated after 15 min incubation. The CF release is presented as percentage release for each time interval (measurements taken every minute). The percentage CF release is calculated as 100×(F−F0)/(FT−F0) where F0 is the initial fluorescence intensity of CF before peptide addition, F is the fluorescence intensity of CF at time point t and FT is the maximum fluorescence after the addition of Triton X-100.

[9] = Table 1, peptide alone, 20 h, no unit in table, μM
[10] = infection 1 h, then peptide 6 h
[11] = Vancomycin resistant E. faecium (VRE)

B1: PLNC8 αβ: two-peptide class IIb bacteriocin of L. plantarum NC8: PLNC8 α (SEQ ID NO 1) with PLNC8 β (SEQ ID NO 2) (peptide)
alpha: DLTTKLWSSWGYYLGKKARWNLKHPYVQF
beta: SVPTSVYTLGIKILWSAYKHRKTIEKSFNKGFYH
modifications: Lactobacillus plantarum NC8
decrease of MIC and MBC of gentamicin by the peptides ([1]; S. epidermidis, FIG. 15): 15-30 fold | decrease of MIC and MBC of rifampicin by the peptides ([1]; S. epidermidis, FIG. 15): 100 fold | decrease of MIC and MBC of vancomycin by the peptides ([1]; S. epidermidis, FIG. 15): 2 fold | inhibition of S. epidermidis isolated from PJIs ([1]; incl. hGISE, FIG. 14): effectively inhibits different strains of S. epidermidis isolated from PJIs, including S. epidermidis (hGISE) | relative susceptibility of Streptococcus species [2]: S. constellatus and S. anginosus were more susceptible to PLNC8 αβ than S. mutans | MBC [3]: 25 µM | MIC [3]: 12.5 µM | MBC [4, 9]: 25 µM | MIC [4, 9]: 12.5 µM | MBC ([4]; Table 3, MRSA, peptide alone): 25 µM | MIC ([4]; Table 3, MRSA, peptide alone): 12.5 µM | S. aureus-mediated cytotoxicity (LDH) and cell viability [5, 10]: antagonized S. aureus-mediated cytotoxicity and inflammatory responses, and promoted cell viability | secretion of IL-6 and CXCL8 [5, 10]: significantly reduced | secretion of IL-6 and CXCL8 ([5]; infection with MSSA, 24 h): reduced bacteria-induced secretion of IL-6 and CXCL8 | wound healing (scratch assay) ([5]; infection with MSSA, 24 h): promoted wound healing in vitro of human keratinocytes following an infection with S. aureus | effect of peptide alone on Pseudomonas aeruginosa [6]: permeabilized and killed | effect of sub-MIC peptide on antibiotics [6]: enhanced the effects of different antibiotics | MBC ([6]; first isolate): >50 µM | MIC ([6]; first isolate): >50 µM | MBC ([6]; second isolate): >50 µM | MIC ([6]; second isolate): >50 µM | effect of peptide alone on Pseudomonas aeruginosa ([6]; listed as PLNC8αβ): did not affect the growth; also recorded: does not affect the growth | effect of peptide alone on Enterococcus faecium [7]: permeabilized and killed | effect of sub-MIC peptide on antibiotics [7]: significantly enhanced the effects of different antibiotics | MBC ([7]; E. faecium, first isolate): 6.25 µM | MIC ([7]; E. faecium, first isolate): 6.25 µM | MBC ([7]; E. faecium, second isolate): 6.25 µM | MIC ([7]; E. faecium, second isolate): 3.1 µM | MBC [7, 11]: 25 µM | MIC [7, 11]: 3.1 µM | effect of peptide alone on Enterococcus faecium ([7]; listed as PLNC8αβ): both inhibitory and bactericidal | lysis of liposomes [8]: complete lysis of liposomes after 2 min
